The target of assay [1] is HCoV-HKU1 spike protein, recombinant soluble ectodomain trimer (HCoV-HKU1) (UniProt Q0ZME7). Nature of the assay: SEC.
In assay [2] the target is HCoV-OC43 spike protein, recombinant soluble ectodomain trimer (HCoV-OC43 | bacteriophage T4) (UniProt P36334). As to the kind of experiment: SEC. (In general: Size exclusion chromatography separates by hydrodynamic size, large species first.)

For orientation: stoichiometry N means a count of units in the complex or per binding partner. As for “HCoV-HKU1 spike protein, recombinant soluble ectodomain trimer (from UniProt Q0ZME7 13-1295) (domain or fragment)”, the stoichiometry N in assay [1] is 3. On to “HCoV-OC43 spike protein, recombinant soluble ectodomain trimer (from UniProt P36334 14-1297) (domain or fragment)”, for which the stoichiometry N in assay [2] was 3.

Values taken from article doi:10.1101/2020.06.22.20137695.
